In patent US20090318342A1, “Compounds” (IMPERIAL INNOVATIONS LIMITED, priority 2005, published 2009):
Like-named read-outs stand apart in the source and are kept apart here.

T1: full-length collagenase 1 (MMP-1) (Homo sapiens, UniProt P03956)
T1 construct: full-length collagenase 1 (MMP-1)
T1 sequence (P03956 100-469): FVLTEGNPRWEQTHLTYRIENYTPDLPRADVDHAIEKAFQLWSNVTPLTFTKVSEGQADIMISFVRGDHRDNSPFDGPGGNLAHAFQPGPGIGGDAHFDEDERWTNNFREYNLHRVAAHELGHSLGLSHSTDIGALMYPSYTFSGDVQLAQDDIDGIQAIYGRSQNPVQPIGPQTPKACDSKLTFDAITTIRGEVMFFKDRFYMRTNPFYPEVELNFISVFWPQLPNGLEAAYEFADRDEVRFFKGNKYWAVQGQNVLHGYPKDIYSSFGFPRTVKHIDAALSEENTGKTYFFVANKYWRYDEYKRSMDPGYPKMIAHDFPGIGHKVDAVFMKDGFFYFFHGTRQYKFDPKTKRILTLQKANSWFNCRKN

T2: gelatinase A (MMP-2) (Homo sapiens, UniProt P08253)
T2 sequence (P08253 110-660): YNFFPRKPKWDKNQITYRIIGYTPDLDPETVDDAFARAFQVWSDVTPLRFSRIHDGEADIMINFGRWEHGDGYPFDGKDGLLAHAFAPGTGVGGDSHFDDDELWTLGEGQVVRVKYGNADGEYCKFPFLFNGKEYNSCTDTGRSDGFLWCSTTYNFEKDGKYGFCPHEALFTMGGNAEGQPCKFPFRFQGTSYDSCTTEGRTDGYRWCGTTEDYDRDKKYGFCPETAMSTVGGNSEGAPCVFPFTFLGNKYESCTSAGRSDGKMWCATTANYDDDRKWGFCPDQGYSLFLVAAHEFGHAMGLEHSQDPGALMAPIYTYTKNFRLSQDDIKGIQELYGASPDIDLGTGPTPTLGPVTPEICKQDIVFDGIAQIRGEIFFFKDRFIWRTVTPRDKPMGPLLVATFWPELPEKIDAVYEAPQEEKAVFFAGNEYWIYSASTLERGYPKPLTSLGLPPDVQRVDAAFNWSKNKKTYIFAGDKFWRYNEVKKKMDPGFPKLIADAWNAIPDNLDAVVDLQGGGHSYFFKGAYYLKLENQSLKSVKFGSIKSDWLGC

B1: N-TIMP-3: N-terminal inhibitory domain of TIMP-3 (residues 1 to 121), C-terminally His-tagged, wild-type (protein)
chain: CTCSPSHPQDAFCNSDIVIRAKVVGKKLVKEGPFGTLVYTIKQMKMYRGFTKMPHVQYIHTEASESLCGLKLEVNKYQYLLTGRVYDGKMYTGLCNFVERWDQLTLSQRKGLNYRYHLGCN
B2: (-2A)N-TIMP-3: N-TIMP-3 mutant with two alanine residues on the N-terminal side of Cysteine1 of the TIMP-3 sequence (protein)
chain: AACTCSPSHPQDAFCNSDIVIRAKVVGKKLVKEGPFGTLVYTIKQMKMYRGFTKMPHVQYIHTEASESLCGLKLEVNKYQYLLTGRVYDGKMYTGLCNFVERWDQLTLSQRKGLNYRYHLGCN
B3: -1A: N-TIMP-3 mutant with the addition of an N-terminal alanine extension (-1A) (protein)
chain: ACTCSPSHPQDAFCNSDIVIRAKVVGKKLVKEGPFGTLVYTIKQMKMYRGFTKMPHVQYIHTEASESLCGLKLEVNKYQYLLTGRVYDGKMYTGLCNFVERWDQLTLSQRKGLNYRYHLGCN

How the values were obtained:
Type in all cases: biochemical
[1] = target: T1, full-length collagenase 1 (MMP-1); assay: Enzyme inhibition kinetic study, MMP-1
Method: (§1) Enzyme inhibition kinetic studies—Inhibition kinetic studies for MMPs and TACE were carried out as described previously (19, 27) with modifications. Purified N-TIMP-3 and mutants were dialyzed against 20 mM Tris-HCl (pH 7.0), 50 mM NaCl containing 20% glycerol, centrifuged at 14,000 rpm for 10 min to remove any precipitate, and protein concentration was re-measured before conducting inhibition assays. Since NaCl inhibits the activity of the TACE ectodomain in vitro (28), we adjusted the final concentration of NaCl to 1 mM in all assays with TACE. Equal volumes (10% of total assay volume) of diluted solutions of N-TIMP-3 and mutants were added to TACE assays, resulting in a final pH of 8.8.
(§2) (Eq. 1) Tight binding inhibition:
(§3) where v is the experimentally determined reaction velocity, v0 is the uninhibited activity, E is enzyme concentration, I is inhibitor concentration, K is the apparent inhibition constant (Ki^(app)) and h is the Hill coefficient.
(§4) Inhibitory properties of mutants with purified metalloproteinases—The inhibitory activities of wild-type N-TIMP-3 and the two mutants were determined with MMPs representing four different sub-groups: full-length collagenase 1 (MMP-1), gelatinase A (MMP-2), and the catalytic domains of stromelysin 1 (MMP-3(ΔC)) and membrane-type 1 MMP (MMP-14). As previously reported for the corresponding mutants of N-TIMP-1 and TIMP-2 (17, 18), both mutations in N-TIMP-3 reduced the inhibitory activity towards the four MMPs by 2 to 3 orders of magnitude (Table I). FIG. 2A highlights the difference in inhibition of MMP-14(CD) by wild-type and mutated N-TIMP-3.
(§5) Ki(app) determinations for MMP-1, MMP-2 and MMP-3 were performed as set out in Example 1.

[2] = target: T2, gelatinase A (MMP-2); assay: Enzyme inhibition kinetic study, MMP-2; details: for Ki: read-out: Ki(app) MMP-2
Method: as §1, §2, §3, §4, §5

[3] = target: soluble form of TACE (TACE R651) (Homo sapiens, UniProt P78536); assay: Enzyme inhibition kinetic study, TACE
Method: FIG. 2. Inhibition of MMP and TACE by N-TIMP-3 and its mutants. A. Inhibition of MMP-14(CD) by wild-type and mutated N-TIMP-3. Open circles, wild-type N-TIMP-3; closed circles, T2G; and open squares, -1A. B. Comparison of the inhibition of TACE by wild-type N-TIMP-3, N-TIMP-1 and TAPI-2. The inhibitors were incubated with 0.5 nM TACE for 3 hr at room temperature, and the residual enzyme activity was measured with 10 μM Substrate III (R&D Systems). […] Open circles, N-TIMP-3; closed circles, TAPI-2; and open squares, N-TIMP-1. C. Inhibition of TACE (0.5 nM) by wild-type and mutated N-TIMP-3. Open circles, wild-type inhibitor; closed circles, T2G; and open squares, -1A.
as §1, §3
The inhibitory activities of the mutants were also compared with that of wild-type N-TIMP-3 against a soluble form of TACE in which the transmembrane and C-terminal cytoplasmic domains are deleted (TACE R651; (28)). […] The inhibition curve of TACE by wild-type N-TIMP-3 is sigmoid, in striking contrast with the inhibition by TAPI-2 and with the inhibition of MMPs by N-TIMP-3 and N-TIMP-1 (FIGS. 2A, 2B; (31)). Sigmoid inhibition curves were also obtained for TACE with the T2G and -1A mutants of N-TIMP-3 (FIG. 2C).

[4] = Table 3, read-out: Ki(app) MMP-1
[5] = higher pH and low ionic strength (TACE conditions), read-out: Ki MMP-1 under the conditions used for TACE activity measurements
[6] = Table II, 0.5 nM TACE, pH 9.0, 1 mM NaCl, fit with equation 3
[7] = Table II, 0.5 nM TACE, pH 9.0, 1 mM NaCl, fit with equation 3, read-out: Ki(app) TACE

Sequence of soluble form of TACE (TACE R651) (P78536 215-651): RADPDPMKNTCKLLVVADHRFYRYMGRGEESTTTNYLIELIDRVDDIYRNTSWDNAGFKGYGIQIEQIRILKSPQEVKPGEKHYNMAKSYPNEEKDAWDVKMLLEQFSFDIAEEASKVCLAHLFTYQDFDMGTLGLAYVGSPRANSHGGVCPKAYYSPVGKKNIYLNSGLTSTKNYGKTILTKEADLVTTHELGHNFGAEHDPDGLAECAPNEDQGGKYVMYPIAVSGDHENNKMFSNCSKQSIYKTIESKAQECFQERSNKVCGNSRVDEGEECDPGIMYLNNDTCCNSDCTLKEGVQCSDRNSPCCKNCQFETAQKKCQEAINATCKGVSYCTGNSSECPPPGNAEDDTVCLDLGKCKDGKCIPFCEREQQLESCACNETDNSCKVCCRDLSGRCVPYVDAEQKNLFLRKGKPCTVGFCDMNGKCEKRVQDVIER

Molecule | Ki [1, 4] [nM] | Ki [1, 5] [nM] | Ki ([2]; Table 3) [nM] | Inhibition of TACE activity (in words) ([3]; FIG. 2B, 0.5 nM TACE, pH 9.0, 1 mM NaCl) | h (Hill coefficient) for TACE inhibition [3, 6] | Ki [3, 7] [nM] | Ki ([3]; pH 7.5, sigmoid inhibition curves, read-out: Ki against TACE at pH 7.5) [nM] | Inhibition of MMP-1 ([1]; 100 nM) | Inhibition of MMP-2 ([2]; 100 nM) | Inhibition of TACE activity ([3]; 100 nM) | Ki ([1]; Table I, enzyme 5 nM, pH 7.5, read-out: Ki(app) MMP-1) [nM] | Ki ([2]; Table I, enzyme 1 nM, pH 7.5) [nM]
B1 | 8.2 ± 2 | 1.6 | 5.1 ± 1 | effectively inhibited | 3.59 ± 0.16 | 13.7 ± 0.2 | 26 ± 3 |  |  |  |  | 
B2 |  |  |  |  |  |  |  | no inhibition | no inhibition | 80-90% |  | 
B3 | > 500 | 412 | > 1000 |  | 1.9 ± 0.22 | 33.9 ± 2.8 |  |  |  |  | ~1300 | 614 ± 32
